Tested on: CCCCC(=O)Oc1ccc([N+](=O)[O-])cc1
Assay: purified protein
Settings: pH 7.5, 14.5 mM Tris-HCl, 0.75% glycerol, 0.5% Triton X, 1.1 µM enzyme

Substance: F. solani cutinase (Fusarium vanettenii)
- Km: 1.48 ± 0.56 µM
- kcat/Km: 10200 ± 6670 M⁻¹ s⁻¹

Reference: publication PMC2796240
